Columns and labels:
[1] = biological target: S2P.BA5.VI-1147 D571C/N967C (D17) (SARS CoV-2 omicron BA.5); assay: cross-linking
[2] = biological target: S2P.BA5.VI-1147 A570C/N967C (I1) (SARS CoV-2 omicron BA.5); assay: cross-linking

Substance	stoichiometry N [1]	stoichiometry N [2]
S2P.BA5.VI-1147 D571C/N967C (D17) (domain or fragment)	3	
S2P.BA5.VI-1147 A570C/N967C (I1) (domain or fragment)		3
